{
  "source": "paper PMC9529903",
  "about": "“Structural insights of the elongation factor EF-Tu complexes in protein translation of Mycobacterium tuberculosis” (Communications Biology, 2022)",
  "molecules": {"B1": {"name": "Mycobacterium tuberculosis elongation factor EF-Ts (natural protein)", "chain": "MANFTAADVKRLRELTGAGMLACKNALAETDGDFDKAVEALRIKGAKDVGKRAERATAEGLVAAKDGALIELNCETDFVAKNAEFQTLADQVVAAAAAAKPADVDALKGASIGDKTVEQAIAELSAKIGEKLELRRVAIFDGTVEAYLHRRSADLPPAVGVLVEYRGDDAAAAHAVALQIAALRARYLSRDDVPEDIVASERRIAEETARAEGKPEQALPKIVEGRLNGFFKDAVLLEQASVSDNKKTVKALLDVAGVTVTRFVRFEVGQA", "notes": "also called Mtb EF-Ts"}},
  "key": {"EF-Tu": {"biological_target": "T1, EF-Tu (Mycobacterium tuberculosis, UniProt P9WNN1)", "T1 construct": "gene tuf; full-length", "T1 sequence (P9WNN1 whole entry)": "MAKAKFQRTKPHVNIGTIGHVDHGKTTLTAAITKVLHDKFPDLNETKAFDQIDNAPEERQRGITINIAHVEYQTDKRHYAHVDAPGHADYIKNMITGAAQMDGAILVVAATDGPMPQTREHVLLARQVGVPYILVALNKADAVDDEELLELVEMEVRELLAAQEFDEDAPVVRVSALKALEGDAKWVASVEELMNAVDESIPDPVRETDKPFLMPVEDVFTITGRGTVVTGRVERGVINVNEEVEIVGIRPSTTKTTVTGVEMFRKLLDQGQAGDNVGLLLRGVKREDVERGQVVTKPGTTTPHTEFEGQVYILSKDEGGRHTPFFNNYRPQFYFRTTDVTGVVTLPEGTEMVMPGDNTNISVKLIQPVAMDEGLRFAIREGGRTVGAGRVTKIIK", "experiment": "biochemical", "type": "binding"}, "EF-Ts (Escherichia coli)": {"biological_target": "EF-Ts (Escherichia coli) (UniProt P0A6P1)", "sequence (P0A6P1 2-283)": "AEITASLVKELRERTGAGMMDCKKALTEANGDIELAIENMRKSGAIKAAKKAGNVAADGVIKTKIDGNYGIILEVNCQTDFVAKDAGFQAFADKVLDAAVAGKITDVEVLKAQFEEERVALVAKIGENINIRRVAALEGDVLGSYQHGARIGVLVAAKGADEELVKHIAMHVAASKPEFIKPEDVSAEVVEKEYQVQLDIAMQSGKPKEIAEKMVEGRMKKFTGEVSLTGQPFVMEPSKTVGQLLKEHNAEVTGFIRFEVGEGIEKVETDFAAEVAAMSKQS", "conditions": "cited from earlier work"}, "[1]": {"biological_target": "T2, Mycobacterium tuberculosis elongation factor EF-Tu (Mycobacterium tuberculosis, UniProt P9WNN1 1-396)", "T2 construct": "also called Mtb EF-Tu", "T2 sequence (P9WNN1 whole entry)": "as the sequence (P9WNN1 whole entry) above", "experiment": "ITC", "conditions": "both partners purified"}},
  "data": [
    {"molecule": "C=CC(=O)Nc1cc(Nc2nccc(-c3cn(C)c4ccccc34)n2)c(OC)cc1N(C)CCN(C)C", "note": "[Osimertinib]", "values": [
      {"measurement": "Kd", "setting": "EF-Tu", "value": 207, "unit": "µM"}
    ]},
    {"molecule": "EF-Tu (from UniProt P0CE47)", "values": [
      {"measurement": "Kd", "setting": "EF-Ts (Escherichia coli)", "value": 2, "unit": "nM"}
    ]},
    {"molecule": "B1", "values": [
      {"measurement": "Kd", "setting": "[1]", "value": "~1360", "unit": "nM"},
      {"measurement": "stoichiometry N", "setting": "[1]", "value": 1}
    ]}
  ]
}
